assay: yeast display, Sf9 membrane polyspecificity reagent, FACS + sequencing; frameworks hold sequencing errors
Outline: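 A nanobody's polyreactivity label depends on the gate it was sorted from. Yeast display cells were stained with 10% biotinylated, detergent-solubilized Sf9 membrane reagent for 1 hour at 4 °C, enriched on streptavidin microbeads and sorted by FACS. The low and high (top ~1%) gates were set on anti-HA fluorescence for expression and streptavidin fluorescence for reagent binding.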

Sequence | polyreactivity (PSR sort gate)
QVQLVESCLGLVQAGGSLRLSFADSGIIIMFYSMGWYRQATGKERELLAAISASGGRTYYADSVKGRFTISRDNAKNTVYLQMNSLKPEDTAVYYCARLLPTPGKPILDYWGQGTQVTVSS | low polyreactivity
QVQLVESDGGLVQAGGSHPLSSAASGRIIYRYTMGWYRQAPGKERELVAAIRYRTSSTYYADSVKGRFTISRDNAKNTVYLQMNSLKPEDTAVYYCAAYDGLRPHRMDYWGQGTQVTVSS | low polyreactivity
QVQLVESEGGLVQAGGSLRISCAASGRNFRTYDMGWYRQAPGKERELVAAISEEGGYTYYADSVKGRFTISRDNAKNTVYLQMNSLKPEDTAVYYCAKDRPGPLRWWFLYGYWGQGTQVTVSS | low polyreactivity
QVQLVESGAALVQAGGSLRISCAASGSTLDTNAMGRYRPAPGKERELVAAITFSGGTTYYADSVKGRFTISRDNAKNTVYLQMNSLKPEDTAVYYCAAEIWLEYVGYDYWGQGTQVTVSS | high polyreactivity
QVQLVESGAGIVQAGGSLRVSSAASGSIFHSYAMGWYRQEPGKERELVAGITYRTGSTYYADSVKGRVTNSRDNAKNTVYFQMNSLKPEDTAVYYCAAGYYSRYFEAFEYYYWGLGTQVTVSS | high polyreactivity
QVQLVESGAGLGQAGGSLRLSCAASGYTFPSNAMGWYRQAPGKERELVAAISSGGRTNYADSVKGRFTISRDNAKNTVYLQMNSLKPEVTAVYYCNADGGPGYPRAYDYWGPGTQVTVSS | low polyreactivity
QVQLVESGAGLLHAGRSLRLSCPASGRIFRGNAMGCYRQAPGKERELVASISTSGVRTFYADSVKGRFTISRDNAKNTFYLQMNSLKHEDTAVYYCNKRDRYRLYGYNYCGQGTQVTVSS | high polyreactivity
QVQLVESGAGLVHAGGSLRLSCAASGLIYVNAMGWYRQAPGKERDFVAAITYSTGSTYYADSVKGRYTISRDNAKNTVYLQMNSLKPEDSAVYYCATDEHSSGRTPYDYWVQGTQVTVSS | low polyreactivity
QVQLVESGAGLVKAGCSLRISCAASGSSFVTYDMGWYRQAPGKERELVAGISGSGSTNYADSVKGRFTISRDNAKNTVYLQMNSLKPEDTAVYYSAAEYEYLWSQYLTDYGYDYWGQGTQVTVSS | low polyreactivity
QVQLVESGAGLVQAAASLRLSCAASGRTFIYYSMGWYRQAPGKEREFVAIISWNGTSTNYADSVKGRFTISRDNAKNTVYLQMNSLKPEDTAVYYCAASFWTDYYRYDYWGQGTQVTVSS | low polyreactivity
QVQLVESGAGLVQAGGILRLSCAASGLTFSRYTMGWSRQAPGKERELVAAITSSGGSTYYADSVKGRFTISRDNAKNTVSLEMNSLKPEDTAVNYCAARYPGTRGDGYWGLGTQVTVSS | high polyreactivity
QVQLVESGAGLVQAGGRLRLSCAASGSIFWRYAMGWSIQAPGKERELVAAINYSTTRTYYADSVKGRFTISRDNAKNTVYLQMNSLKPVDTAVYYCAADSRVDEGEYWGQGTQVTVSS | high polyreactivity
QVQLVESGAGLVQAGGRLRLSCAASGSTFGYYAMGLYTQAPGTERELVAVITTRVGSTYYADSVKGRFTISRDNAKNTVYLQMNSLKPEDTAVYYCNASGRTRSYSGSFSKHYYWGQGTKVTVSS | high polyreactivity
QVQLVESGAGLVQAGGSLLLSCAASGYIFDVYDMGWYRQAPGKERELVAAITDYADSVKGRFTISRDNAKNTVYLQMNSQKPEDTAVYYCAADTDVLKGTTGFEYWGQGTQVTVSS | low polyreactivity
QVQLVESGAGLVQAGGSLPLSCAASGFTFTIYAMGWYRQAPGKERELVATISGRAGRTYYADSVKGRFTISRDNAKNTVYLQMNSMKPEDTAGYYCNAGQWRYTGLYYYWGQGTQVTVSS | high polyreactivity
QVQLVESGAGLVQAGGSLRFSCAASGSIFDHYVMGWYRQAPGKEREFVAAIPSGDRTNYADSVKGRFTISRDNANNTVYLQMNSLKPEDTAVYYCNADYQYYFYYTTCYYDYDYWGQGTPVTVSS | low polyreactivity
QVQLVESGAGLVQAGGSLRLICAASGSTFVKNVMGCYRQAPGKERELVAGITRGGSTYYADSVKGRFTISRDHAKNSVYLQMNSLYPDDTAVYYWAKRYAWELDYWGQGSQVTVSS | high polyreactivity
QVQLVESGAGLVQAGGSLRLICAATGFTLGSNAMGSYRKAPGKERELVAAISKSGGSTYYADSVKGRFTISRDNAKNTVYLQMNSLKPDDTAVYYCAARYLYQGYRYDYWGQGTQVTVSS | high polyreactivity
QVQLVESGAGLVQAGGSLRLSCAASGFNFRENAMGWYRQAPGKERELVAAISRSGGSTYYADSVKGRFTISRDNAKNTVYLQMNSLKPEDTAVYYCAAPKDYDYWGQGTKVTVSS | low polyreactivity
QVQLVESGAGLVQAGGSLRLSCAASGFTFYPYAMGLYRQAPGKERELVAAINSGGSTYYADSVKGRFTISRDNAKNTVYLQMNSLKPEDTAVYYCAAYGKRGAVAFYYWGQGTQVTVSS | high polyreactivity
QVQLVESGAGLVQAGGSLRLSCAASGLTFALYAMGGYRQAPGKERELVAAIDWSGGITYYADSVKGRFTISRDNAKNTVYLQLNSLKPEDTAVYYCAARPSTFKYKYGYWGQGTQVTVSS | high polyreactivity
QVQLVESGAGLVQAGGSLRLSCAASGLTFDYYAMGWYRQAPGKEREFVAAITRRGGGTYYADSVKGRFTISRDNAKNTVYLQMNSLKPEDTAVYYCAAYGCGNRWYSRFDYWGQGTQVTVSS | high polyreactivity

Sequence | polyreactivity (PSR sort gate)
QVQLVESGAGLVQAGGSLRLSCAASGRIFGYYAMGWYRQAPGKERELVAAITRGGSTYYADSVKGRFTISRDNAKHTVYLQMNSLKPEDTAVYFCAANISGLVKYENDYWGQGTQLTVSS | low polyreactivity
QVQLVESGAGLVQAGGSLRLSCAASGRIFRVYAMGWYRQAPGQERELVAAITSGGTTYADSVKGRLTISRDNAKKTVYLQMNILKPEDTAVYYCAARYYIHRGYDYDYWGQGTQVTVSS | high polyreactivity
QVQLVESGAGLVQAGGSLRLSCAASGRNFWYYAMGLYRQAPGKERELVAGITYGDGSTYYADSVKGRFTISRDNAKNTVYLQMNSLKPEDTAVYYCAVDLRSYWFRYGFDYWGQGTQVTVSS | low polyreactivity
QVQLVESGAGLVQAGGSLRLSCAASGRTFDKYAMGWYRQAPGKDRELVAAISGSGGRTYYADSVKGSFTISRDIAKNTVYLQMNSLKPEDTAFYYCAGDTGSYTYYYWGKGTQVTVSS | high polyreactivity
QVQLVESGAGLVQAGGSLRLSCAASGRTFHGYAMGWYRQAPRKERELLARINWSDGRTYYADSVKGRFTISRDNAKNTVFLQMNSLKPEDTAVYYCAADKTVSYAPAWYYYWGQGTQVTVSS | low polyreactivity
QVQLVESGAGLVQAGGSLRLSCAASGRTFWVYSMGWSRQAPGKESELVAAFRRGGITNYADSVKGRFTISRDNAKITVYLQMNCLNPEDTAVYYCATENYGYLTRYYYWGPGTQVTVSS | low polyreactivity
QVQLVESGAGLVQAGGSLRLSCAASGRTIGVYAMGWYRQAPGKERELVAAISWSGGTTYYADSVKGRFTISRDNAKNTVYLQMNSLKPEDTAVYYCAADSYTEVDYWGQGTQVTVSS | low polyreactivity
QVQLVESGAGLVQAGGSLRLSCAASGRTVAWNAMGRYRQAPGKERELVAAISWSGTSTYYADSVKGRFTISRDNAKNTVYLQMNSLKPEDTAVYYCATSVKARQIYGYYYWGQGTQVSVSS | high polyreactivity
QVQLVESGAGLVQAGGSLRLSCAASGSIFFSYAMGWSRQAPGKERELVAGINWSGGSTYADSVKGRFTISRDNAKNTVYLQMNSLKPEDTAVYYCAAKYYSERSRYHYWGQGTQVTVSS | low polyreactivity
QVQLVESGAGLVQAGGSLRLSCAASGSIFGRDTMGWYRQAPGKERELVAAINLRGGSTYYADSVKGRFTISRDNAKNTVYLQMNSLKPEDTAVYYCATDGWKQSAYDYWGQGTQVTVSS | low polyreactivity
QVQLVESGAGLVQAGGSLRLSCAASGSIFIHYAMGWYRQARGKERELVAAITGDGNTTYADSVKGRFTISRDNAQNTVNLQINSLKPEDTAVYYCAVTIVDYYWAFDYWGQGTQVTVSS | low polyreactivity
QVQLVESGAGLVQAGGSLRLSCAASGSIFNYYAMVWYRQAPGKERELFAGITTSGGSTYYADSVKGSFTISRDNAKNSVYLQMKSLKPVDTAVYYCGAYDHISSTYFLDDSWGQGTQVTVSS | low polyreactivity
QVQLVESGAGLVQAGGSLRLSCAASGSIFQPYAMGWYRQAPGKERELVAAISSSGGSTTYADSVKGRFTISRDNAKNTVYLQMNSLKPEDTADYYCAADSADDMGYWGQGTQVTVSS | low polyreactivity
QVQLVESGAGLVQAGGSLRLSCAASGSIFVVYAMGWYRQAPWKERELVAAISWGIGSTYYADSVKGRFTISRDNAKNTVYLQMNSLKPEDTAVYYCAADTDIVLYDYWGQGTQVTVSS | low polyreactivity
QVQLVESGAGLVQAGGSLRLSCAASGSILDEYAMGWYRQPPGKERELVAAISSSGTSTYYADSVKGRFTISRDNAKNTVYLQMNSLKPEDTAVYYCARVKQHTSHRVPGDDYWGQGTQLTVSS | low polyreactivity
QVQLVESGAGLVQAGGSLRLSCAASGSIYTLNAMGWYRQAPGKEMELVAAITSSGTGTYYADSVKGRFTISRDNAKNTVYLQMNSLKPEDTAVYYCAKDRPYWLSYGSWFKFNYWGQGTQVTVSS | low polyreactivity
QVQLVESGAGLVQAGGSLRLSCAASGSTFNHYAMGWYRPAPGKDRELVAAITWSGDSTYYADSVKGRFTISRDNAKNTVYLQMNSLKPEDTAVYDCNTYRIFGYSPYYAGYDYWGQGTQVTVSS | low polyreactivity
QVQLVESGAGLVQAGGSLRLSCAASGSTFPVYAMGWYRQAPGKEREFVAAITYSGARTYYADSVKGRFTISRDNAKNTVYLQMNSLKPEDTAVYYCNAVPYRYLLHGTRCPFSRGYDSWGQGTQVTVSS | high polyreactivity
QVQLVESGAGLVQAGGSLRLSCAASGSTFYFNGMGWYRQAPGKERELVAAISSTGNTYYADSVKGRFTISRDNAKNTVYLQMNSLKPEDTAVNDCLAGSSEAGYYWGHGTQVTVSS | high polyreactivity
QVQLVESGAGLVQAGGSLRLSCAASGTTFWKYVMGWYRQAPGKERELVAAITSRGGSTYADSVKGRFTISRDNAKNSVYLQMNSLKPEDTAVYYCAATKFWYYGYDYWGQGTQVTVSS | low polyreactivity
QVQLVESGAGLVQAGGSLRLSCAASGYIFRQYAMGRYRQAPGTEREFVAAISQTGGSTYYADSVKRRFTLSRDNAKNTVYFQMNSLKPVDTAVYYCAARYRGQRYRKLDYWGQGTQVTVSS | high polyreactivity
